Tests used:
[1] = target: ^15N-labeled SH3 domain of Hck (SH3Hck), GST tag cleaved (UniProt P08631 77-141, uniformly ^15N labeled); experiment: NMR titration
[2] = target: 6His-tagged ELMO1 C-terminal domain with the polyproline motif (ELMO_(532–727)) (mouse, UniProt Q8BPU7 532-727); experiment: ELISA

Sequence of ^15N-labeled SH3 domain of Hck (SH3Hck), GST tag cleaved (P08631 77-141): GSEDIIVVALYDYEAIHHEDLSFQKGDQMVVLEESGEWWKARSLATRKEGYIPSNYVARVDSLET

## DLENIQIPDAPPPIPKEPSNYDFVYDCN [ELMO_(700–727) peptide (28 C-terminal amino-acids of ELMO1)]
[1]
  Kd: 1600 ± 300 µM

B1: GST-fused SH3 domain of Hck (GST-SH3Hck) (domain or fragment)
chain: not shown
[2]
  Kd: ~10 µM

From article PMC4338372 (FEBS Open Bio, 2015)
